Source: IntAct's records for PubMed 25730778

B1: Protein argonaute (Schizosaccharomyces pombe (strain ATCC 38366 / 972)), O74957 (parent)
chain: MSYKPSSEIALRPGYGGLGKQITLKANFFQIISLPNETINQYHVIVGDGSRVPRKQSQLIWNSKEVKQYFGSSWMNSVYDGRSMCWSKGDIADGTIKVNIGSESHPREIEFSIQKSSKINLHTLSQFVNSKYSSDPQVLSSIMFLDLLLKKKPSETLFGFMHSFFTGENGVSLGGGVEAWKGFYQSIRPNQGFMSVNVDISSSAFWRNDSLLQILMEYTDCSNVRDLTRFDLKRLSRKFRFLKVTCQHRNNVGTDLANRVYSIEGFSSKSASDSFFVRRLNGEEQKISVAEYFLENHNVRLQYPNLPCILVKNGAMLPIEFCFVVKGQRYTAKLNSDQTANMIRFAVQRPFERVQQIDDFVHQMDWDTDPYLTQYGMKIQKKMLEVPARVLETPSIRYGGDCIERPVSGRWNLRGKRFLDPPRAPIRSWAVMCFTSTRRLPMRGIENFLQTYVQTLTSLGINFVMKKPPVLYADIRGSVEELCITLYKKAEQVGNAPPDYLFFILDKNSPEPYGSIKRVCNTMLGVPSQCAISKHILQSKPQYCANLGMKINVKVGGINCSLIPKSNPLGNVPTLILGGDVYHPGVGATGVSIASIVASVDLNGCKYTAVSRSQPRHQEVIEGMKDIVVYLLQGFRAMTKQQPQRIIYFRDGTSEGQFLSVINDELSQIKEACHSLSPKYNPKILVCTTQKRHHARFFIKNKSDGDRNGNPLPGTIIEKHVTHPYQYDFYLISHPSLQGVSVPVHYTVLHDEIQMPPDQFQTLCYNLCYVYARATSAVSLVPPVYYAHLVSNLARYQDVTADDTFVETSEASMDQEVKPLLALSSKLKTKMWYM
partner: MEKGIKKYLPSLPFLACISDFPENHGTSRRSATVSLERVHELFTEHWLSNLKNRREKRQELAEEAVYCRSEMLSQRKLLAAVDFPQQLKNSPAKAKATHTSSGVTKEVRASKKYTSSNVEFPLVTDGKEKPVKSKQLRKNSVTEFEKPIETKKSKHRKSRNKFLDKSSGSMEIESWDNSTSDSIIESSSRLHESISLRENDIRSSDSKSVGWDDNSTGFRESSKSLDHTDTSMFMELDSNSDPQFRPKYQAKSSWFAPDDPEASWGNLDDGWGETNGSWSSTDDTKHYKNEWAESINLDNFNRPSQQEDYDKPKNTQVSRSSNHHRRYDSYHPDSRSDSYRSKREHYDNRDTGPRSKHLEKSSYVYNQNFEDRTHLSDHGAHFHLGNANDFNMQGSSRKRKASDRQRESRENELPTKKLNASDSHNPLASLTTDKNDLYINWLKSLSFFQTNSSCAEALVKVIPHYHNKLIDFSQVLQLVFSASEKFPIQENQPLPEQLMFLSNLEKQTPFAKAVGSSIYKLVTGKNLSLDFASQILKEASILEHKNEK

Variants of: B1
Conditions: with tas3_schpo tas3, O94687

effect of a mutation on the interaction	Variant
disrupting interaction strength	R773E
disrupting interaction strength	F276A;R773E
